Experiments:
[1] = Fluorescence lifetime imaging (FLIM) of amyloid fibril formation in vitro; type: physicochemical; details: for fluorescence lifetime of larger aggregates deposited on the coverslip: FLIM, 'often in the range of'; for mean fluorescence lifetime, monomeric peptide: beginning of time course / before trypsin
Method: We first examined whether a Hilyte Fluor 488 (HF488) dye attached to the N termini of Aβ(1–40) and Aβ(1–42) could act as a reporter of amyloid formation by monitoring how the fluorescence intensity of the dye changes as fibril formation occurs in vitro for each of the two Aβ isoforms. The appearance of fibrillar species was identified by means of dot blot experiments using the conformation-specific antibody LOC ([Kayed et al., 2007]), and the HF488 fluorescence intensity was measured in parallel (Figure 1A; Figure S1 available online). […] This small difference, however, could result from the fact that LOC recognizes fibrillar oligomers as well as amyloid fibrils, whereas the fluorescence quenching is likely to be associated predominately with amyloid fibrils. We also confirmed the formation of β sheet structure by measurement of circular dichroism spectra at the beginning and end of the time course of the experiment (Figure 1B). Next, we used FLIM to analyze these samples collected at the beginning and end of the time course of the experiment. The fluorescence lifetimes in each pixel of these images were obtained by fitting monoexponential decay functions to the observed time-resolved fluorescence decays, and the data and images are shown in Figures 1C and 1D.
All in vitro experiments were performed at a peptide concentration of 5 μM in 50 mM sodium phosphate buffer at pH 7.4. Aggregation kinetics were monitored by steady-state fluorescence in a FLUOstar Optima microplate reader (BMG Labtech) and sealed black Costar half-area, 96-well plates (Corning Life Sciences). Data were recorded at 5-min intervals using a 480-nm bandpass filter for excitation and a 520-nm bandpass filter for emission. Orbital shaking (300 rpm, 10 s) was carried out prior to each recording to ensure that each sample was homogenous. Sample aliquots for dot blot analysis were taken at the indicated time points and immediately flash-frozen in liquid nitrogen. These aliquots were thawed by dilution into phosphate buffer to a total volume of 25 μl and immediately blotted onto a nitrocellulose membrane using a Bio-Rad dot blot apparatus. The membrane was blocked with 5% (w/v) dry milk and 0.1% Triton X-100 in PBS and stained with LOC as the primary antibody and an Alexa Fluor 647-labeled anti-rabbit antibody as the secondary antibody (Life Technologies). The blots were imaged on a Typhoon 9400 scanner (GE Healthcare) using the 633-nm laser line for excitation. Densitometric analysis of the blots was carried out using ImageJ. ([Schneider et al., 2012]). Aβ samples for in vitro fluorescence lifetime imaging were placed in a glass-bottomed tissue culture dish (MatTek) and sealed with a coverslip and nail varnish to avoid evaporation.
All FLIM experiments were carried out using HF488-labeled Aβ peptides, and images were recorded by time-correlated single photon counting (TCSPC) using a confocal microscopy platform built on an Olympus Fluoview FV300 confocal scan unit. A pulsed supercontinuum source (SC 450, Fianium) was used for excitation, emitting a train of sub-10-picosecond pulses at 40 MHz repetition rate. The output beam was collimated and passed through a hot mirror assembly to remove infrared components at wavelengths greater than 700 nm. The visible portion of the spectrum was passed through an acousto-optic tunable filter (AOTFnC-VIS, AA Opto-Electronic) whose radio frequency modulator was driven by software developed using LabVIEW (National Instruments). The excitation wavelength was set to 480 nm. The excitation beam was reflected onto the sample with a 20/80 broad bandwidth coated beam splitter so that 20% of the excitation light passed on to the sample and 80% of the fluorescence signal was reflected toward the confocal pinhole. The fluorescence light was passed through a 515-nm Semrock long-pass filter (Laser 2000) and passed onto a fast photomultiplier tube (PMC-100, Becker & Hickl). Lifetimes were recorded using TCSPC circuitry (SPC-830, Becker & Hickl). […]

trypsin = assay: Fluorescence lifetime after trypsin treatment of the labeled peptide; type: physicochemical; details: trypsin-treated monomeric peptide, cleavage into short fragments; FLIM; mean ± SD
Text: For the HF488 dye to function as a direct reporter of amyloid formation in vivo, its fluorescence lifetime must respond to the conformational changes associated with amyloid formation but remain largely unaffected by extrinsic factors, such as the solution conditions that the Aβ peptides may encounter in the living cell. […] That is, it is insensitive to pH changes in this range. […] Furthermore, the fluorescence lifetime of the unconjugated HF488 dye (4.0 ± 0.1 ns) is longer than that of the Aβ-conjugated dye (3.7 ± 0.05 ns), perhaps as a result of interactions between the dye and the polypeptide chain in the latter case ([Chen et al., 2010]). […]
All FLIM experiments were carried out using HF488-labeled Aβ peptides, and images were recorded by time-correlated single photon counting (TCSPC) using a confocal microscopy platform built on an Olympus Fluoview FV300 confocal scan unit. […] The excitation beam was reflected onto the sample with a 20/80 broad bandwidth coated beam splitter so that 20% of the excitation light passed on to the sample and 80% of the fluorescence signal was reflected toward the confocal pinhole. The fluorescence light was passed through a 515-nm Semrock long-pass filter (Laser 2000) and passed onto a fast photomultiplier tube (PMC-100, Becker & Hickl). Lifetimes were recorded using TCSPC circuitry (SPC-830, Becker & Hickl). […]

[2] = 5 μM peptide in 50 mM sodium phosphate buffer pH 7.4
[3] = 5 μM peptide in 50 mM sodium phosphate buffer pH 7.4, FLIM (TCSPC), monoexponential fit, mean ± SD

| Substance | lag phase of fibril formation in vitro (decrease in fluorescence lifetime) ([1]; 5 μM peptide in 50 mM sodium phosphate buffer pH 7.4, droplet on FLIM microscope stage, sigmoidal decrease (Figure S2A)) | fluorescence lifetime of larger aggregates deposited on the coverslip [1, 2] | mean fluorescence lifetime, monomeric peptide [1, 3] [ns] | mean fluorescence lifetime after trypsin treatment (trypsin) [ns] | mean fluorescence lifetime, solutions containing fibrillar peptide ([1]; aggregation read-out, 5 μM peptide in 50 mM sodium phosphate buffer pH 7.4, end of time course, FLIM (TCSPC), monoexponential fit, mean ± SD) [ns] |
| --- | --- | --- | --- | --- | --- |
| ^HF488Aβ(1–40): Synthetic 40-residue amyloid β peptide labeled at the N terminus with Hilyte Fluor 488, purchased from Anaspec | approximately 2.5 hr | 2.5–3.0 ns | 3.7 ± 0.1 | 4.0 ± 0.1 | – |
| ^HF488Aβ(1–42): Synthetic 42-residue amyloid β peptide labeled at the N terminus with Hilyte Fluor 488, purchased from Anaspec | – | 2.5–3.0 ns | 3.7 ± 0.05 | – | 3.3 ± 0.1 |
